The values that follow come from patent US7514397.

For this assay, the target named is viral gp41 of HIV-1IIIB (HIV-1IIIB). In words: cell-based or functional assay.
“M41, maltose binding protein fusion with the extracellular domain of HIV-1 gp41 (540-686) (from UniProt P03377 540-686)”: the Cell fusion (IC90) is over 50 µM and the HIV infectivity (IC90) is over 16 µM.
For “M41-P, M41 fusion protein with an Ile to Pro mutation at position 578 (from UniProt P0AEX9 27-392; P03377 540-686)”, in that order: 0.083 µM and 0.066 µM.
On to “M41-PΔ178, M41-P fusion protein from which the DP-178 region has been deleted (gp41 540-642, Ile578Pro) (from UniProt P03377 540-642)”, for which the Cell fusion (IC90) was over 50 µM and the HIV infectivity (IC90) was over 8 µM.
